Our source for the molar ratio bound, percent lower than WT values is article PMC6422494.

The target in this assay is GST-stx-1A (syntaxin-1A, GST fusion, immobilised on glutathione-sepharose beads) (UniProt P32851). As to the kind of experiment: pull-down; GST-stx-1A immobilised on glutathione-sepharose beads; one prey protein (5 µM), 20 hr, 4°C; 100 mM NaCl, 20 mM Tris, 1 mM DTT, 1 mM EDTA, 0.5% Triton X-100, pH 7.4; four washes; SDS-PAGE, Coomassie, molar retention ratio by densitometry.
Sequence of UniProt P32851 (P32851 1-262): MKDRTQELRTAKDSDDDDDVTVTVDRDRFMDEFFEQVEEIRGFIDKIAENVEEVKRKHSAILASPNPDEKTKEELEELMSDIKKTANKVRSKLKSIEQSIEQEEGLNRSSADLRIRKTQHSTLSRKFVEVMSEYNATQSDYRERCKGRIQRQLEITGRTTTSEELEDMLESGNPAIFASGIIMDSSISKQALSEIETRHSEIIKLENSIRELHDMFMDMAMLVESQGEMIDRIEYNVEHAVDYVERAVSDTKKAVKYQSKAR

For the substance “SN25 L^GGS (6xHis-tagged, recombinant; whole linker aa 83-141 substituted by a flexible G/S peptide) (from UniProt P60881-2 1-82; P60881-2 142-206) (natural protein)”, the molar ratio bound, percent lower than WT is 50 % lower.
